By Km is commonly meant the concentration of substrate that gives half-maximal velocity.

Consider two molecules from paper PMC6883840 (Proceedings of the National Academy of Sciences of the …, 2019).

For one series, the target named is T1, ThrB (homoserine kinase) (Escherichia coli, UniProt P00547).
T1 sequence (P00547 1-310): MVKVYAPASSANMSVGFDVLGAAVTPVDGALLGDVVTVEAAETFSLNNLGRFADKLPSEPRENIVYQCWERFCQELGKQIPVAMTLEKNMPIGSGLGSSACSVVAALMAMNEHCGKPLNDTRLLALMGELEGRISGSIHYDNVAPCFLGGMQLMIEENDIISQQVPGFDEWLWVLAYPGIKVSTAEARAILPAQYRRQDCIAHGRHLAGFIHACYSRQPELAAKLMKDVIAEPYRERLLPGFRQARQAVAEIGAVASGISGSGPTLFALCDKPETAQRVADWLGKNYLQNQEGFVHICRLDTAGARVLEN
Kind of series: […]-NMR of ATP to ADP conversion. The following applies: ATP hydrolysis without second substrate; 37 °C, 24 h. The series is classed as biochemical.

Substrate in the series “purified protein”: N[C@H](C(=O)O)[C@H](O)CO
Kind of series: purified protein. The following applies: reverse direction: 4-hydroxythreonine to (3R)-3,4-dihydroxy-2-oxobutanoate.

As to `Nc1ncnc2c1ncn2[C@@H]1O[C@H](COP(=O)(O)OP(=O)(O)OP(=O)(O)O)[C@@H](O)[C@H]1O` [ATP], the “31P-NMR of ATP to ADP conversion” value on ThrB (homoserine kinase) is “hydrolysis of ATP in the active site of ThrB in the absence of a second substrate”.

B1: SerC (Escherichia coli K-12) (protein)
chain: AQIFNFSSGPAMLPAEVLKQAQQELRDWNGLGTSVMEVSHRGKEFIQVAEEAEKDFRDLLNVPSNYKVLFCHGGGRGQFAAVPLNILGDKTTADYVDAGYWAASAIKEAKKYCTPNVFDAKVTVDGLRAVKPMREWQLSDNAAYMHYCPNETIDGIAIDETPDFGADVVVAADFSSTILSRPIDVSRYGVIYAGAQKNIGPAGLTIVIVREDLLGKANIACPSILDYSILNDNGSMFNTPPTFAWYLSGLVFKWLKANGGVAEMDKINQQKAELLYGVIDNSDFYRNDVAKANRSRMNVPFQLADSALDKLFLEESFAAGLHALKGHRVVGGMRASIYNAMPLEGVKALTDFMVEFERRHG
B1: in “purified protein”, the Km stood at 2600 ± 700 µM and the kcat is reported as 2.0 ± 0.1 × 10^-5 s^-1.
